Here are results for two substances from patent US6489125.

The target of series [1] is RyR2 channels from failing hearts. In words: co-immunoprecipitation, immunoblot densitometry (FIG. 4B).
Series [2] has the same target. Put plainly: cell-based or functional assay.
Series [3] deals with type 2 ryanodine receptor (RyR2), native channel from cardiac sarcoplasmic reticulum.

“FK-506 binding protein FKBP12.6, native from cardiac SR (from UniProt P68106 1-108)”: the decrease in the amount of FKBP12.6 bound (failing against normal hearts) in series [1] stood at 60%. In series [2], this substance showed an open probability (Po) at 50 nM cis (cytosolic) Ca^2+ of 0.24.

For the substance “protein kinase A (PKA) catalytic subunit, endogenous in cardiac SR”, the “phosphorylation of RyR2 on addition of cAMP without exogenous PKA” value in series [3] was “Addition of phosphorylation buffer including cAMP without exogenous PKA also resulted in phosphorylation of RyR2 that was inhibited by PKI”.
